Measured values from PMC4250520, “Calcium-induced conformational changes of the regulatory domain of human mitochondrial aspartate/glutamate carriers” (Nature Communications, 2014).

T1: N-terminal domain of citrin (human, UniProt Q9UJS0 2-319)
T1 construct: human citrin N-terminal domain, residues 2-319; In the crystal structure it is joined to the C-terminal domain on one chain; The N-terminal domain of citrin could not be expressed on its own; also called EF-hands 1-8; source: Lactococcus lactis NZ9000, as part of the purified fusion; set free by cleavage with MBP-TEV
T1 sequence (looked up): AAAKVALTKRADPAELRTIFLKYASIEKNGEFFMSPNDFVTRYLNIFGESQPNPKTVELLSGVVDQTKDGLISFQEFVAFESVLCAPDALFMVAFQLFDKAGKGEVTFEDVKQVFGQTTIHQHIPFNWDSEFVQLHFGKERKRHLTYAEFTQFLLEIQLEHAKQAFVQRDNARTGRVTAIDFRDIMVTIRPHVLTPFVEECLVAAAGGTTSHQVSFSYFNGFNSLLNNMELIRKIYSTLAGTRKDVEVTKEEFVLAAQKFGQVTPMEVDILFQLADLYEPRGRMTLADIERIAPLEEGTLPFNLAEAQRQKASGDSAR


Key:
[1] = target: T1, N-terminal domain of citrin; test: SEC; fusion cleaved with MBP-TEV overnight, then Superose 12 10/30 HR; 20 mM Hepes pH 7.5, 150 mM NaCl, 10 mM EGTA (sample E, supplemented with 10 mM EGTA and 10 mM EDTA); peak fractions on Tris-tricine gels; conditions: both partners purified
[2] = target: the molecule itself; test: SEC-MALLS; Superdex 200 10/300 GL; 20 mM Hepes pH 7.5, 150 mM NaCl, 5 mM CaCl2; two-detector method
[3] = target: the molecule itself; test: SEC-MALLS; Superose 6 10/300 GL; 20 mM Hepes pH 8.0, 150 mM NaCl, 0.002% (w/v) LMNG, 0.004 mg/ml TOCL; protein-conjugate (three-detector) method

Binder	stoichiometry N [2]	further results
C-terminal domain of citrin (domain or fragment, human, UniProt Q9UJS0 613-675, looked up, human citrin C-terminal domain, residues 613-675; residues 632-658 are seen in the structure; In the crystal structure it is joined to the N-terminal domain on one chain; also called C-terminal helix; source: Lactococcus lactis NZ9000, as part of the purified fusion; set free by cleavage with MBP-TEV) GVKPMGSEPVPKSRINLPAPNPDHVGGYKLAVATFAGIENKFGLYLPLFKPSVSTSKAIGGGP	–	binding result [1]: binds
N- and C-terminal domain fusion of citrin (domain or fragment, human, human citrin N-terminal domain, residues 2-319; TEV protease cleavage site that links the two domains in place of the carrier domain; human citrin C-terminal domain, residues 613-675; A Factor-Xa cleavage site follows the octa-histidine tag; no tag removal step is described in the purification of this fusion; also called citrin N- and C-terminal fusion protein; regulatory domain of citrin; …) AAAKVALTKRADPAELRTIFLKYASIEKNGEFFMSPNDFVTRYLNIFGESQPNPKTVELLSGVVDQTKDGLISFQEFVAFESVLCAPDALFMVAFQLFDKAGKGEVTFEDVKQVFGQTTIHQHIPFNWDSEFVQLHFGKERKRHLTYAEFTQFLLEIQLEHAKQAFVQRDNARTGRVTAIDFRDIMVTIRPHVLTPFVEECLVAAAGGTTSHQVSFSYFNGFNSLLNNMELIRKIYSTLAGTRKDVEVTKEEFVLAAQKFGQVTPMEVDILFQLADLYEPRGRMTLADIERIAPLEEGTLPFNLAEAQRQKASGDSARENLYFQGGVKPMGSEPVPKSRINLPAPNPDHVGGYKLAVATFAGIENKFGLYLPLFKPSVSTSKAIGGGP	2	–
N- and C-terminal domain fusion of aralar (domain or fragment, human, human aralar N-terminal domain, residues 2-317; TEV protease cleavage site that links the two domains in place of the carrier domain; human aralar C-terminal domain, residues 611-678; also called aralar fusion; source: gene codon-optimized for expression in L. lactis; expressed, purified) AVKVQTTKRGDPHELRNIFLQYASTEVDGERYMTPEDFVQRYLGLYNDPNSNPKIVQLLAGVADQTKDGLISYQEFLAFESVLCAPDSMFIVAFQLFDKSGNGEVTFENVKEIFGQTIIHHHIPFNWDCEFIRLHFGHNRKKHLNYTEFTQFLQELQLEHARQAFALKDKSKSGMISGLDFSDIMVTIRSHMLTPFVEENLVSAAGGSISHQVSFSYFNAFNSLLNNMELVRKIYSTLAGTRKDVEVTKEEFAQSAIRYGQVTPLEIDILYQLADLYNASGRLTLADIERIAPLAEGALPYNLAELQRQQSPGLGRENLYFQGGLKPAGSEPTPKSRIADLPPANPDHIGGYRLATATFAGIENKFGLYLPKFKSPSVAVVQPKAAVAATQ	2	–
citrin (mitochondrial aspartate/glutamate carrier isoform 2), full-length (natural protein, human, UniProt Q9UJS0 1-675, looked up, also called SLC25A13; AGC2; source: purified in lauryl maltose neopentyl glycol) MAAAKVALTKRADPAELRTIFLKYASIEKNGEFFMSPNDFVTRYLNIFGESQPNPKTVELLSGVVDQTKDGLISFQEFVAFESVLCAPDALFMVAFQLFDKAGKGEVTFEDVKQVFGQTTIHQHIPFNWDSEFVQLHFGKERKRHLTYAEFTQFLLEIQLEHAKQAFVQRDNARTGRVTAIDFRDIMVTIRPHVLTPFVEECLVAAAGGTTSHQVSFSYFNGFNSLLNNMELIRKIYSTLAGTRKDVEVTKEEFVLAAQKFGQVTPMEVDILFQLADLYEPRGRMTLADIERIAPLEEGTLPFNLAEAQRQKASGDSARPVLLQVAESAYRFGLGSVAGAVGATAVYPIDLVKTRMQNQRSTGSFVGELMYKNSFDCFKKVLRYEGFFGLYRGLLPQLLGVAPEKAIKLTVNDFVRDKFMHKDGSVPLAAEILAGGCAGGSQVIFTNPLEIVKIRLQVAGEITTGPRVSALSVVRDLGFFGIYKGAKACFLRDIPFSAIYFPCYAHVKASFANEDGQVSPGSLLLAGAIAGMPAASLVTPADVIKTRLQVAARAGQTTYSGVIDCFRKILREEGPKALWKGAGARVFRSSPQFGVTLLTYELLQRWFYIDFGGVKPMGSEPVPKSRINLPAPNPDHVGGYKLAVATFAGIENKFGLYLPLFKPSVSTSKAIGGGP	–	stoichiometry N [3]: 2
N-terminal domain of aralar (domain or fragment, human, UniProt O75746 2-311, looked up, human aralar N-terminal domain, residues 2-311; Tag removed with Factor Xa; also called aralar N-terminal domain; regulatory domain of aralar; source: Lactococcus lactis NZ9000, purified (Nickel Sepharose, Factor Xa, SEC); not shown: His8, N-terminal, cleaved) AVKVQTTKRGDPHELRNIFLQYASTEVDGERYMTPEDFVQRYLGLYNDPNSNPKIVQLLAGVADQTKDGLISYQEFLAFESVLCAPDSMFIVAFQLFDKSGNGEVTFENVKEIFGQTIIHHHIPFNWDCEFIRLHFGHNRKKHLNYTEFTQFLQELQLEHARQAFALKDKSKSGMISGLDFSDIMVTIRSHMLTPFVEENLVSAAGGSISHQVSFSYFNAFNSLLNNMELVRKIYSTLAGTRKDVEVTKEEFAQSAIRYGQVTPLEIDILYQLADLYNASGRLTLADIERIAPLAEGALPYNLAELQRQQ	2	–
